Tests used:
Experiment in all cases: double-antibody sandwich ELISA, R001 as detection antibody, against reference products of the different expression systems
[1] = molecular target: E1.16 HPV16 VLPs (Human papillomavirus type 16) (UniProt P03101)
[2] = molecular target: E2.16 HPV16 VLPs (Human papillomavirus type 16) (UniProt P03101)
[3] = molecular target: Y2.16 HPV16 VLPs (Human papillomavirus type 16) (UniProt P03101)
[4] = molecular target: Y1.16 HPV16 VLPs (Human papillomavirus type 16) (UniProt P03101)
[5] = molecular target: I1.16 HPV16 VLPs (Human papillomavirus type 16) (UniProt P03101)

Measured: 抗原/蛋白比值

B1: HPV 16 R001 (antibody, V domains shown)
VH: QSVKESEGRLVTPGTPLTLTCTASGFTMSRYHMTWVRQAPGKGLEWIGIIYARNSDTYYANWAKGRFTISKTSTTVDLKITSPTIEDTATYFCARVDSDSSGAFDRLDLWGQGTLVTVSS
VL: DPMLTQTAASVEVAVGGTVTIKCQASQSIGGYLSWYQQKPGQRPKLLIYRASTLASGVPSRFKGSGSGTEYTLTFSGVECADAAAYYCQQGYTSSDINNAFGGGTEVVVK
1: [1] | [2] | [3] | [4] | [5]
